According to PMC11151092 (Molecular Biology of the Cell, 2024):

B1: R-SNARE Nyv1 (natural protein)
chain: MKRFNVSYVEVIKNGETISSCFQPFQKNENYGTITSANEQITPVIFHNLIMDMVLPKVVPIKGNKVTKMSMNLIDGFDCFYSTDDHDPKTVYVCFTLVDMPKILPIRILSGLQEYESNATNELLSSHVGQILDSFHEELVEYRNQTLNSSGNGQSSNGNGQNTISDIGDATEDQIKDVIQIMNDNIDKFLERQERVSLLVDKTSQLNSSSNKFRRKAVNIKEIMWWQKVKNITLLTFTIILFVSAAFMFFYLW
B2: Sec18 (enzyme)
chain: MFKIPGFGKAAANHTPPDMTNMDTRTRHLKVSNCPNNSYALANVAAVSPNDFPNNIYIIIDNLFVFTTRHSNDIPPGTIGFNGNQRTWGGWSLNQDVQAKAFDLFKYSGKQSYLGSIDIDISFRARGKAVSTVFDQDELAKQFVRCYESQIFSPTQYLIMEFQGHFFDLKIRNVQAIDLGDIEPTSAVATGIETKGILTKQTQINFFKGRDGLVNLKSSNSLRPRSNAVIRPDFKFEDLGVGGLDKEFTKIFRRAFASRIFPPSVIEKLGISHVKGLLLYGPPGTGKTLIARKIGTMLNAKEPKIVNGPEILSKYVGSSEENIRNLFKDAEAEYRAKGEESSLHIIIFDELDSVFKQRGSRGDGTGVGDNVVNQLLAKMDGVDQLNNILVIGMTNRKDLIDSALLRPGRFEVQVEIHLPDEKGRLQIFDIQTKKMRENNMMSDDVNLAELAALTKNFSGAEIEGLVKSASSFAINKTVNIGKGATKLNTKDIAKLKVTREDFLNALNDVTPAFGISEEDLKTCVEGGMMLYSERVNSILKNGARYVRQVRESDKSRLVSLLIHGPAGSGKTALAAEIALKSGFPFIRLISPNELSGMSESAKIAYIDNTFRDAYKSPLNILVIDSLETLVDWVPIGPRFSNNILQMLKVALKRKPPQDRRLLIMTTTSAYSVLQQMDILSCFDNEIAVPNMTNLDELNNVMIESNFLDDAGRVKVINELSRSCPNFNVGIKKTLTNIETARHDEDPVNELVELMTQSA
B3: 3Q-SNARE complex (QaQbQc) on proteoliposomes (complex)
chain 1: MSFFDIEAQSSKGNSQQEPQFSTNQKTKELSNLIETFAEQSRVLEKECTKIGSKRDSKELRYKIETELIPNCTSVRDKIESNILIHQNGKLSADFKNLKTKYQSLQQSYNQRKSLFPLKTPISPGTSKERKDIHPRTEAVRQDPESSYISIKVNEQSPLLHNEGQHQLQLQEEQEQQQQGLSQEELDFQTIIHQERSQQIGRIHTAVQEVNAIFHQLGSLVKEQGEQVTTIDENISHLHDNMQNANKQLTRADQHQRDRNKCGKVTLIIIIVVCMVVLLAVLS
chain 2: MSSLLISYESDFKTTLEQAKASLAEAPSQPLSQRNTTLKHVEQQQDELFDLLDQMDVEVNNSIGDASERATYKAKLREWKKTIQSDIKRPLQSLVDSGDRDRLFGDLNASNIDDDQRQQLLSNHAILQKSGDRLKDASRIANETEGIGSQIMMDLRSQRETLENARQTLFQADSYVDKSIKTLKTMTRRLVANKFISYAIIAVLILLILLVLFSKFK
chain 3: MAANSVGKMSEKLRIKVDDVKINPKYVLYGVSTPNKRLYKRYSEFWKLKTRLERDVGSTIPYDFPEKPGVLDRRWQRRYDDPEMIDERRIGLERFLNELYNDRFDSRWRDTKIAQDFLQLSKPNVSQEKSQQHLETADEVGWDEMIRDIKLDLDKESDGTPSVRGALRARTKLHKLRERLEQDVQKKSLPSTEVTRRAALLRSLLKECDDIGTANIAQDRGRLLGVATSDNSSTTEVQGRTNNDLQQGQMQMVRDQEQELVALHRIIQAQRGLALEMNEELQTQNELLTALEDDVDNTGRRLQIANKKARHFNNSA
B4: Sec17 (natural protein)
chain: MSDPVELLKRAEKKGVPSSGFMKLFSGSDSYKFEEAADLCVQAATIYRLRKELNLAGDSFLKAADYQKKAGNEDEAGNTYVEAYKCFKSGGNSVNAVDSLENAIQIFTHRGQFRRGANFKFELGEILENDLHDYAKAIDCYELAGEWYAQDQSVALSNKCFIKCADLKALDGQYIEASDIYSKLIKSSMGNRLSQWSLKDYFLKKGLCQLAATDAVAAARTLQEGQSEDPNFADSRESNFLKSLIDAVNEGDSEQLSEHCKEFDNFMRLDKWKITILNKIKESIQQQEDDLL

Tests used:
[1] = target: T1, Qa-SNARE Vam3 in proteoliposomes (S. cerevisiae, UniProt Q12241 1-283); assay: co-IP
T1 sequence: B3 chain 1

[2] = target: HOPS (homotypic fusion and vacuole protein sorting complex) (S. cerevisiae, UniProt P12868;Q03308;P27801;P20795;Q07468;P38959); assay: proteoliposome floatation
[3] = target: four-SNARE bundle with GST-Qa (GST-Qa, R, Qb, Qc) in detergent (S. cerevisiae, UniProt Q12241;Q12255;Q04338;P32912); assay: pull-down
[4] = target: 4-SNARE complex (R, Qa, Qb, Qc) on proteoliposomes (S. cerevisiae, UniProt Q12255;Q12241;Q04338;P32912); assay: proteoliposome floatation
[5] = target: B3; assay: proteoliposome floatation

Binder | binding result [1] | binding result [2] | binding result [3] | binding result [4] | binding result [5]
B1 | binds | binds | – | – | –
B2 | – | binds | binds | binds | binds
B3 | – | binds | – | – | –
B4 | – | – | binds | – | –
